The record followed here is patent US20150299268A1 (UNIVERSITY OF MARYLAND BALTIMORE, published 2015).

The target in one test is T1, BaL-gp120-W69A (HIV-1 BaL).
T1 construct: domain: gp120
Nature of the test: capture ELISA. Background: An ELISA detects its analyte on a solid surface through an enzyme-linked reagent.

A further test concerns the target T2, BaL-gp120-V75A (HIV-1 BaL).
T2 construct: domain: gp120
The experiment in a line: capture ELISA.

A further test addresses T3, BaL-gp120-R476A (HIV-1 BaL).
T3 construct: domain: gp120
Nature of the test: capture ELISA.

The next test concerns the target gp120-JR48.1-ScFV. Nature of the test: ELISA.
The target of a further test is T4, BaL-gp120 (HIV-1 BaL).
T4 construct: domain: gp120; also called monomeric gp120; monomeric BaL gp120
The experiment in a line: ELISA.

For the next test, the target named is T5, FLSC R/T (HIV-1, UniProt P01730 26-208).
T5 construct: not shown: linker of FLSC not described
The experiment in a line: ELISA.

The target of the next test is gp120-JR4-ScFV. The experiment in a line: ELISA.
The target in a further test is gp120-VRC01-ScFV. The experiment in a line: ELISA.
In a further test the target is gp120-b12-ScFV. The experiment in a line: ELISA.
Test [1] addresses Env of HIV-1 virus Du422.1 (HIV-1). The experiment in a line: cell-based or functional assay.
Test [2] has as its target Env of HIV-1 virus T250-4 (HIV-1). Nature of the test: cell-based or functional assay.
Test [3] concerns the target Env of HIV-1 virus BaL.26 (HIV-1). The experiment in a line: cell-based or functional assay.
Test [4] concerns the target Env of HIV-1 virus CAAN5342.A2 (HIV-1). The experiment in a line: cell-based or functional assay.
For test [5], the target named is Env of HIV-1 virus 3817.v2.c59 (HIV-1). The experiment in a line: cell-based or functional assay.
Test [6] has as its target Env of HIV-1 virus AC10.0.29 (HIV-1). The experiment in a line: cell-based or functional assay.
For test [7], the target named is Env of HIV-1 virus SF162.LS (HIV-1). Nature of the test: cell-based or functional assay.
Test [8] addresses Env of HIV-1 virus 1006_11_C3_1601 (HIV-1). Nature of the test: cell-based or functional assay.
The target in test [9] is Env of HIV-1 virus Du172.17 (HIV-1). The experiment in a line: cell-based or functional assay.
In test [10] the target is Env of HIV-1 virus THRO4156.18 (HIV-1). Nature of the test: cell-based or functional assay.
The target in test [11] is Env of HIV-1 virus 6545.v4.c1 (HIV-1). The experiment in a line: cell-based or functional assay.
In test [12] the target is Env of HIV-1 virus 6540.v4.c1 (HIV-1). The experiment in a line: cell-based or functional assay.
Test [13] addresses Env of HIV-1 virus ZM53M.PB12 (HIV-1). The experiment in a line: cell-based or functional assay.
The target of test [14] is Env of HIV-1 virus 6535.3 (HIV-1). Nature of the test: cell-based or functional assay.

B1: N60-B1.1 (antibody, V domains shown)
VH: QLQLQESGPGLVKPSGTLSLTCSVSGGSMNGRNIYWAWIRQTPGKGLEWIGSVDVSDEDAGRTFYKWPIKSRASISADTSKNQFSLKLSSVTVADTGVYYCARETLYYVGNGYYYPLDVFYYNYYMDVWGKGTTVSVSS
VL: not shown
notes: also called bnAb N60-B1.1
As to B1, the “% Binding” value in the test with BaL-gp120-W69A turned out to be 84%; with BaL-gp120-V75A it was 104%; in the test with BaL-gp120-R476A it was 57%. Also, the “Fold of Ab needed for ELISA binding OD equal to half max on gp120” value in the test with gp120-JR48.1-ScFV amounted to 0.14 fold; in the test with BaL-gp120, 1 fold; in the test with FLSC R/T, 16.4 fold; in the test with gp120-JR4-ScFV, 0.04 fold; in the test with gp120-VRC01-ScFV, 0.03 fold; with gp120-b12-ScFV it was 0.01 fold. Also, the “IC50 Titer (ug/ml), neutralization” value amounted to 0.18 µg/mL in [1]; 0.019 µg/mL in [2]; 0.019 µg/mL in [3]; 0.019 µg/mL in test [4]; 1.53 µg/mL in [5]; 0.14 µg/mL in [6]. Also, the “IC50 Titer (ug/ml), neutralization” value in test [7] worked out at 0.019 µg/mL; in test [8], 0.07 µg/mL; in [9], 7.08 µg/mL; in [10] it was 0.3 µg/mL; in test [11], 0.37 µg/mL; in test [12], 0.08 µg/mL. Further, the “IC50 Titer (ug/ml), neutralization” value in test [13] and in test [14] was 0.019 µg/mL in each case.
